Measurements as given in US20200206198A1, “CFTR CHANNEL ACTIVATOR FOR USE IN THE TREATMENT AND/OR PREVENTION OF GLUTEN SENSITIVITY CONDITIONS” (priority 2017, published 2020).

How the values were obtained:
CFTR [1] = molecular target: T1, CFTR (Homo sapiens, UniProt P13569); assay: CFTR channel function in intestinal epithelial cells (forskolin-induced Isc in Ussing chambers; SPQ iodide efflux); assay type: cell-based
T1 construct: Immunoprecipitations of endogenous proteins were performed on 500 μg of lysates from Caco-2 cells; host or cells: Caco-2, T84
Description: Human colon adenocarcinoma-derived Caco-2 and T84 cells (Barone, M. V. et al. 2014; Luciani, A. et al. 2010) were obtained from the ATCC. Cells were maintained in T25 flask in Modified Eagle Medium (MEM) for Caco-2, or Ham's F12+DMEM (1:1) for T84, supplemented with 10% fetal bovine serum (FBS), 2 mM Glutamine+1% Non Essential Amino Acids (NEAA) and the antibiotics penicillin\streptomycin (100 units/ml) (all reagents from Lonza). Caco-2 cells were grown in Transwells (Corning, 3470 or 3460) under the normal condition. Briefly, 8×10^4 or 5×10^5 cells were seeded in 6.5-mm diameter or 12-mm diameter, respectively, and grown until the RT reached 800 to 1,200 Ω·cm^2. Transwells with a pore size of 0.4 μm were used. Medium in both the apical and baso lateral chambers was changed every other day. Cells were treated with 20 μg/ml of either with the α-gliadin peptide comprising the P31-43 amino acid sequence of α-gliadin LGQQQPFPPQQPY (SEQ ID 1) (below referred to as P31-43), which is known to induce an enterocyte stress response (Meresse, B. et al.2009; Barone, M. V. et al. 2014; Luciani, A. et al. 2010), the T-cell activating α-gliadin peptide comprising the P57-68 amino acid sequence of α-gliadin (QLQPFPQPQLPY SEQ ID 2)) (below referred to as P57-68) (Maiuri, L., et al. 2003; Meresse, B. et al.2009; 30 Barone, M. V. et al. 2014), or the scrambled GAVAAVGVVAGA (SEQ ID 3) control peptide (below referred to as PGAV), or with different modified P31-43, either biotin-tagged or not, for different time points (from 1 h short challenge up to 24 h). Cells were also treated with 50 or 100 5 μg/ml of P57-68 or PGAV peptides for 3 h.
Caco-2 or T84 cells were also treated with: CFTR potentiators VX-770 (Ivacaftor) (10 μM) or VX-532 (20 μM) (Selleck chemicals) or Genistein (10 μM) (Verkman, A. S. et al. 2005; Jih, K. Y. et al. 2013) (Sigma-Aldrich) or in presence or absence of CFTR inhibitor172 (CFTRinh172, 20 μM).
Human colon adenocarcinoma-derived Caco-2 and T84 cells were obtained from the ATCC. Cells were maintained in T25 flask in Modified Eagle Medium (MEM) for Caco-2, or Ham's F12+DMEM (1:1) for T84, supplemented with 10% fetal bovine serum (FBS), 2 mM Glutamine+1% Non Essential Amino Acids (NEAA) and the antibiotics penicillin\streptomycin (100 units/ml) (all reagents from Lonza) (Luciani, A., et al. 2010. Cells were grown in Transwells (Corning, 3470 or 3460) under the normal condition (Luciani, A., et al. 2012). Briefly, 8×10^4 or 5×10^5 cells were seeded in 6.5-mm diameter or 12-mm diameter, respectively, and grown until the RT reached 800 to 1,200 Ω·cm2. Transwells with a pore size of 0.4 μm were used. Medium in both the apical and basolateral chambers was changed every other day. […]

CFTR [2] = molecular target: T1, CFTR; assay: Co-immunoprecipitation of biotinylated peptides with CFTR in Caco-2 cells; assay type: cell-based
Description: Human colon adenocarcinoma-derived Caco-2 and T84 cells were obtained from the ATCC. Cells were maintained in T25 flask in Modified Eagle Medium (MEM) for Caco-2, or Ham's F12+DMEM (1:1) for T84, supplemented with 10% fetal bovine serum (FBS), 2 mM Glutamine+1% Non Essential Amino Acids (NEAA) and the antibiotics penicillin\streptomycin (100 units/ml) (all reagents from Lonza) (Luciani, A., et al. 2010. Cells were grown in Transwells (Corning, 3470 or 3460) under the normal condition (Luciani, A., et al. 2012). Briefly, 8×10^4 or 5×10^5 cells were seeded in 6.5-mm diameter or 12-mm diameter, respectively, and grown until the RT reached 800 to 1,200 Ω·cm2. Transwells with a pore size of 0.4 μm were used. Medium in both the apical and basolateral chambers was changed every other day. […] Cells were also treated with 50 or 100 μg/ml of P57-68 or PGAV peptides for 3 h. Caco-2 or T84 cells were also treated with: CFTR potentiators VX-770 (10 μM) or VX-532 (20 μM) (Selleck chemicals) or Genistein (10 μM) (Sigma-Aldrich) or in presence or absence of CFTR inhibitor172 (CFTRinh172, 20 μM) or 3-methyl-adenine (3-MA, 20 μM) (Calbiochem), Z-DON (20 nM, Zedira) or BAPTA-AM (10 μM, Calbiochem).
The whole lysate or membrane fraction proteins of cell lines and mice intestine homogenates were obtained from treated and untreated cells or mice as described. The equal amount of protein were resolved by SDS-PAGE gel and blotted with antibodies against: SQSTM1, (Sigma Aldrich, 108k4767) 1:1000, PPARγ (Santa Cruz Biotechnology, sc7273) 1:500, BECN1 (Abcam, ab58878) 1:1000, CFTR clone M3A7 (Abcam, ab4067) 1:500, phospho-ERK1/2 (php42/44, Cell Signaling Technology, #91101) 1:1000, UVRAG (Santa Cruz Biotechnology sc8215) 1:1000, NHERF-1 (BD, 611161) 1:1000, EZRIN (BD, 610603) 1:1000, hVps34 (SigmaV9764) 1:300, biotin (Abcam, ab1227) 1:2000, PKAr2a (BD, 610625) 1:500, Ubiquitin (Cell Signaling clone P4D1, #3936) 1:1000, CHIP (Calbiochem PC711) 1:500, Caspase-1 p10 (M-20) (Santa Cruz Biotechnology, sc-514) 1:200, NLRP3 (Abcam, ab4207), 1:500, IDO1 (monoclonal; cv152) 1:1000^[80], used as primary antibodies. Normalization was performed by probing the membrane with anti-β-actin (Cell Signaling, #4970) 1:1000, anti-Gapdh (Sigma-Aldrich, G8795) 1:1000 and anti-flottilin (Abcam ab15148) 1:1000 antibodies. Immunoprecipitations of endogenous proteins were performed on 500 μg of lysates from Caco-2 cells. The proteins were incubated for 12-18 h at 4° C. with 10 ug\ml of specific antibody followed by the addition of Protein A/G-agarose beads for 4 h at 4° C. The beads were then washed three times with lysis buffer and Laemmli's sample buffer was added to the samples. The membranes were then blotted with: CFTR clone CF3 (Abcam, ab2784) 1:1000, TG2 (clone CUB7402; NeoMarkers) 1:1000, CHIP (Calbiochem PC711) 1:500, Ubiquitin (Cell Signaling clone P4D1 3936), isopeptide (Abcam 422) 1:1000, PKAR2 (BD 610625) 1:500.
For detection of complex with biotnylated-P31-43 or immune-complex of glutamime-lysine bonds, the beads were resolved in non-reducing and non-denaturating conditions, and then blotted with Streptavidin-HRP (Sigma 52438) 1:3000 or anti-biotin (Abcam ab2103) 1:2500 and anti-isopeptide (Abcam 422) 1:1000.
The separation of endosomal fractions was performed as described^9 from treated and untreated cells. Protein of endosomal fraction were resolved by SDS-Page and blotted with primary antibodies against Rab-5(Abcam 18211) 1:500, Rab-7(Abcam 77993) 1:500, EEA-1 (Abcam 2900) 1:500, TG2 or CFTR. EEA-1 was used as early endosome marker. For detection of complex with biotnylated-P31-43, the beads were resolved in non-reducing and non-denaturating conditions, and then blotted with Streptavidin-HRP (Sigma S2438) 1:3000 or anti-biotin (Abcam ab2103) 1:2500.

T1 sequence (P13569 whole entry): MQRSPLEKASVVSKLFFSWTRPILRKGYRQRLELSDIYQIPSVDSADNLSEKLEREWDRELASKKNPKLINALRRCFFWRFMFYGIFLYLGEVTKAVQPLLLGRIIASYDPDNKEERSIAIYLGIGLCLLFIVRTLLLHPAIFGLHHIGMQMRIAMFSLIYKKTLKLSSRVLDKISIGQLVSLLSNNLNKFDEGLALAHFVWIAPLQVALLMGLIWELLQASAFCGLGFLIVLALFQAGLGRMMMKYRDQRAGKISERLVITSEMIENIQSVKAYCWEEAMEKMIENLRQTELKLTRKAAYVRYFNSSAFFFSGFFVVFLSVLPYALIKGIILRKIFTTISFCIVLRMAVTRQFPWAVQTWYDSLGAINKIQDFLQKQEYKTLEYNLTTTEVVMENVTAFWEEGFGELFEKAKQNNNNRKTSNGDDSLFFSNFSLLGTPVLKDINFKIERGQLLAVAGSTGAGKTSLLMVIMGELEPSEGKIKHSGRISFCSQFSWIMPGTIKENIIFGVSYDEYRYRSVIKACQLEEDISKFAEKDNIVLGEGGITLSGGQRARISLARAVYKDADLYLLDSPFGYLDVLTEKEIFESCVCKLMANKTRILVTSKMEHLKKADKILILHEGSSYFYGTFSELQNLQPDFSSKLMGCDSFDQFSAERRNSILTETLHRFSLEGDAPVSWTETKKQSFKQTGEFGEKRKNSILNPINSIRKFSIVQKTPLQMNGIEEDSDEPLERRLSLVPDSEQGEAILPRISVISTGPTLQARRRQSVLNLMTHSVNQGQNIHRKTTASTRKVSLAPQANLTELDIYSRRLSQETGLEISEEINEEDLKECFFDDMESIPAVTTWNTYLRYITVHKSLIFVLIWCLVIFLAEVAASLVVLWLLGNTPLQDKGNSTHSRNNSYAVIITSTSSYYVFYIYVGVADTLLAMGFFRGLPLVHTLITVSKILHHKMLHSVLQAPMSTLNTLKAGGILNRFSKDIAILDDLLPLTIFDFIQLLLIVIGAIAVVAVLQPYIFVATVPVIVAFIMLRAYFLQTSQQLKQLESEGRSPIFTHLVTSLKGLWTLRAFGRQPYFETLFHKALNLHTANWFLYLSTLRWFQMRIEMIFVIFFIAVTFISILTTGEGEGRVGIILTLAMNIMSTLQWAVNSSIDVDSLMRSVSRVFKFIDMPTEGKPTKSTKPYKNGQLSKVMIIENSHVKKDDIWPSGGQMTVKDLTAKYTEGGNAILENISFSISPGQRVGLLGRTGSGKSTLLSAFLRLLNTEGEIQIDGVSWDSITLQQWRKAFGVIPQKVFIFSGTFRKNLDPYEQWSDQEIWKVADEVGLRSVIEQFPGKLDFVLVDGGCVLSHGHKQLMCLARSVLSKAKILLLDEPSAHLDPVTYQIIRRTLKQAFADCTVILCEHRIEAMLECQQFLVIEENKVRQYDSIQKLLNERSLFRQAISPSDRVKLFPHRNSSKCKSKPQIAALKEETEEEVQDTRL

Molecule: CC(C)(C)c1cc(C(C)(C)C)c(NC(=O)c2c[nH]c3ccccc3c2=O)cc1O [VX-770, N-(2,4-di-tert-butyl-5-hydroxyphenyl)-4-oxo-1,4-dihydroquinoline-3-carboxamide]
- prevention of P31-43 induced decrease of CFTR function (CFTR [1]; VX-770 10 μM, VX-532 20 μM, Genistein 10 μM, Caco-2 or T84 cells): Prevents P31-43 Induced Inhibition of CFTR Function
- effect on co-immunoprecipitation between P31-43 and CFTR (CFTR [2]): prevented the co-immunoprecipitation between P31-43 and CFTR

Molecule: α-gliadin peptide LGQQQPFPPQQPY (SEQ ID 1), induces an enterocyte stress response (P31-43 sequence of alpha-gliadin)
- reduction of CFTR channel function in response to forskolin (CFTR [1]; 20 μg/ml peptide, intestinal epithelial cells (Caco-2, T84)): did reduce CFTR channel function
- presence in CFTR immunoprecipitates from early endosomal protein fractions (CFTR [2]): revealed the presence of biotinylated P31-43
- interaction (co-immunoprecipitation) with CFTR (CFTR [2]; 1 h with biotinylated peptides): co-immunoprecipitated with CFTR
- co-immunoprecipitation with CFTR in clathrin+ EEA1− plasma membrane protein fractions (CFTR [2]; after 5 min incubation): co-immunoprecipitated
